Results reported in publication PMC10609148, “Hexa-Histidine, a Peptide with Versatile Applications in the Study of Amyloid-β(1–42) Molecular Mechanisms of Action” (Molecules, 2023).

Columns and labels:
[1] = molecular target: human recombinant cytochrome b5 reductase (Cb5R) with a His6-tag (human); experiment: inhibition of enzyme activity (NADH-dependent Cb5 reductase activity); 0.11 μg/mL Cb5R with a His6-tag, 5 μM Cb5, 0.25 mM NADH, rising Aβ peptide; absorbance at 550 nm; 20 mM phosphate, 0.1 mM DTPA, pH 7, 25 °C; fit to one inhibitor binding site; in Aβ monomers
[2] = molecular target: human recombinant cytochrome b5 reductase (Cb5R) with a His6-tag (human); experiment: other fluorescence titration; FAD fluorescence (ex 460 nm, em 520 nm) of 32 nM Cb5R with a His6-tag titrated with Aβ peptides; 20 mM phosphate, 0.1 mM DTPA, pH 7, 25 °C; one-site fit; apparent constant, in peptide monomers

Ki [1]: 50 to 60 nM
EC50 [2]: 75 nM
half-saturation constant in the fitted one-site equation [2]: 99.3
Substance: Aβ(25–35) (peptide)
